According to PMC2630536:

Assays:
[1] = molecular target: fluorescein-EGR-chloromethylketone-labeled thrombin (bovine) (bovine); experiment: other fluorescence titration
TMEGF456 M388L = experiment: SPR
TMEGF456 D349N = experiment: SPR
TMEGF456 Y358F = experiment: SPR
TMEGF456 E357Q = experiment: SPR

| Substance | Kd [1] | other results |
| --- | --- | --- |
| TMEGF45 M388L (domain or fragment) | 57 nM | – |
| TMEGF45 E357Q (domain or fragment) | 55 nM | – |
| thrombin (PPACK-thrombin in the SPR; active thrombin in the protein C activation assay) (enzyme) | – | Kd (TMEGF456 M388L): 4.4 nM; Kd (TMEGF456 D349N): 4.2 nM; Kd (TMEGF456 Y358F): 2.6 nM; Kd (TMEGF456 E357Q): 5.2 nM |
| TMEGF45 D349N (domain or fragment) | 43 nM | – |
| TMEGF45 wild type (domain or fragment) | 68 nM | – |
| TMEGF45 D400E (domain or fragment) | 49 nM | – |
